From patent publication EP4806514A2 (Lepu Biopharma Co., Ltd., dated 2025) come the findings set out here.

Assay [1] has as its target T1, human CDH6-his protein (Katcus, Cat. No. CDH-HM106) (human, UniProt P55285 54-615, limits assumed).
T1 construct: Bought; also called human CDH6 protein
T1 sequence (looked up): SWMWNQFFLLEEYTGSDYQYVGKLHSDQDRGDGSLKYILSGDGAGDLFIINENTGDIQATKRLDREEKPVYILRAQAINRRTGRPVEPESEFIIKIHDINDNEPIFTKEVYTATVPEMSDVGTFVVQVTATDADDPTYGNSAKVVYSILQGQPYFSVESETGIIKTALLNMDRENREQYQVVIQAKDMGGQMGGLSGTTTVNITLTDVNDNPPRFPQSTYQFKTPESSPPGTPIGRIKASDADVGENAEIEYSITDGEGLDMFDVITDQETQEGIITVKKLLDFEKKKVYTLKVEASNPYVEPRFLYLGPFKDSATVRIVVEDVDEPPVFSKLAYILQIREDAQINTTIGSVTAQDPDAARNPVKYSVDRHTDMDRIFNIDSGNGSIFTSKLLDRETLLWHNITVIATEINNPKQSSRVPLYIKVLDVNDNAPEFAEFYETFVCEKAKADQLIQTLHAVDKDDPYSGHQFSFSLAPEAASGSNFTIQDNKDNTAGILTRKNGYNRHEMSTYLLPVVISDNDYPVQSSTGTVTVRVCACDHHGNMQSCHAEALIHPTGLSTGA
The experiment in a line: ELISA, antigen coated at 1 ug/mL. (In general: In an ELISA, binding on a coated surface is turned into a signal by an enzyme label.)

For assay [2], the target named is T2, human CDH3-his protein (Kactus, Cat. No. CDH-HM103) (human, UniProt P22223 108-654, limits assumed).
T2 construct: Bought; also called human CDH3 protein
The experiment in a line: ELISA, antigen coated at 1 ug/mL.

T2 sequence (P22223 108-654 limits assumed): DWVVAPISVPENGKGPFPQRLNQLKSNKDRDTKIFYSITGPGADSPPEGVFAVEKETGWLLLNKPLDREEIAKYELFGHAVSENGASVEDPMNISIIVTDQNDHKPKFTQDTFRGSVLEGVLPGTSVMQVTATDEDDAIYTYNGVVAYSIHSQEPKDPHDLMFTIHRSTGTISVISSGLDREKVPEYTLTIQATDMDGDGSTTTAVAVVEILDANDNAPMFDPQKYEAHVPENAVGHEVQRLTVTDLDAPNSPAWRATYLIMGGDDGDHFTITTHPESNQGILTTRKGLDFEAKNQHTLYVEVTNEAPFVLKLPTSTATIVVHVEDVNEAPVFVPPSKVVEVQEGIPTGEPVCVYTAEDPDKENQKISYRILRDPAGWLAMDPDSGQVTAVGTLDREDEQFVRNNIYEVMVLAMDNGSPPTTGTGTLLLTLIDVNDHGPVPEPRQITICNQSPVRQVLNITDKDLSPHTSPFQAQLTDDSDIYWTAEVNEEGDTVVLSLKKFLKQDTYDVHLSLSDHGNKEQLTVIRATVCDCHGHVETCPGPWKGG

B1: 29H8D3-z12 (antibody, V domains shown)
VH: QVQLVQSGAEVKKPGASVKVSCKASGYTFTDHTIHWMRQRPGQGLEWIGYIYPRDGYTKYNEKFKDRATLTADTSTSTAYMELRSLRSDDTAVYYCARFYYGYWYFDVWGQGTTVTVSS
VL: DIVMTQSPLSLPVTPGEPASISCRSSKSLLRSNGNTYLYWFLQKPGQSPQVLIYRMSNLASGVPDRFSGSGSGTDFTLKISRVEAEDVGVYYCMQHLEYPFTFGQGTKLEIK
notes: Humanized, human IgG1 constant region; also called 29H8D3-z12 mAb
Turning to B1, the binding result in assay [1] and in assay [2] was “no binding (tested: titrated from 50 nM)” throughout.
